Values of other authors, collected in patent US20070276019A1, “Haloalkyl Containing Compounds as Cysteine Protease Inhibitors” (Axys Pharmaceuticals, Inc., priority 2003, published 2007).

Settings: clinical trials

In the case of “OKT3: murine monoclonal antibody directed towards CD-3 domain of activated T-cells”, the “patients administered OKT3 that produce antibodies versus the therapy” value is given as 20-40%.
